We go through 125 sequences from the supplement of paper PMC9112550, “Optimization of the antimicrobial peptide Bac7 by deep mutational scanning” (BMC Biology, 2022).
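Further: peptides expressed intracellularly from a pBAD plasmid library in pooled LB shake-flask culture, induced with 0.3% L-arabinose, DNA abundance read by NGS, three biological replicates, DESeq2 with apeglm shrinkage.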

The series deals with Escherichia coli TOP10. In words: shrunken log2 fold change of peptide-encoding DNA abundance (4.5 h post-induction vs induction); higher = less antimicrobial activity (less host growth inhibition). The conditions noted are these: time post-induction: 4.5 h; library: site-saturation at positions 5, 18, 19, 20.
Regarding RRIRLRPPRLPRPRPRPGDCPRP, the “shrunken log2 fold change” value came out at 0.0644.

For RRIRLRPPRLPRPRPRPGMEPRP, the “shrunken log2 fold change” value worked out at 0.251.

With RRIRQRPPRLPRPRPRPITAPRP, the “shrunken log2 fold change” value is -0.503.

Take RRIRPRPPRLPRPRPRPARAPRP: the “shrunken log2 fold change” value is 0.438.

Regarding RRIRRRPPRLPRPRPRPFCLPRP, the “shrunken log2 fold change” value amounted to 0.194.

Regarding RRIRCRPPRLPRPRPRPMLWPRP, the “shrunken log2 fold change” value is -0.00796.

In the case of RRIRVRPPRLPRPRPRPHQRPRP, the “shrunken log2 fold change” value was -0.124.

Turning to RRIRQRPPRLPRPRPRPQLRPRP, the “shrunken log2 fold change” value was -0.165.

On to RRIRCRPPRLPRPRPRPGLQPRP, for which the “shrunken log2 fold change” value was 0.109.

With RRIRNRPPRLPRPRPRPHPPPRP, the “shrunken log2 fold change” value was found to be 0.304.

As to RRIRMRPPRLPRPRPRPLLEPRP, the “shrunken log2 fold change” value was 2.21.

For RRIRTRPPRLPRPRPRPCCAPRP, the “shrunken log2 fold change” value was 0.125.

Turning to RRIRMRPPRLPRPRPRPFREPRP, the “shrunken log2 fold change” value is 0.2.

Turning to RRIRYRPPRLPRPRPRPSVQPRP, the “shrunken log2 fold change” value was -0.065.

For the sequence RRIRIRPPRLPRPRPRPWRHPRP, the “shrunken log2 fold change” value was -0.083.

RRIRTRPPRLPRPRPRPIQWPRP: the “shrunken log2 fold change” value turned out to be 0.015.

Turning to RRIRRRPPRLPRPRPRPEAGPRP, the “shrunken log2 fold change” value came out at 0.731.

For the sequence RRIRNRPPRLPRPRPRPRKMPRP, the “shrunken log2 fold change” value came out at 0.263.

RRIRLRPPRLPRPRPRPHIIPRP: the “shrunken log2 fold change” value turned out to be 0.0077.

As for RRIRDRPPRLPRPRPRPTWVPRP, the “shrunken log2 fold change” value came to 0.323.

For the sequence RRIRMRPPRLPRPRPRPQELPRP, the “shrunken log2 fold change” value was found to be 0.0211.

Consider RRIRQRPPRLPRPRPRPFWNPRP, for which the “shrunken log2 fold change” value is -0.00884.

With RRIRQRPPRLPRPRPRPHFGPRP, the “shrunken log2 fold change” value is -0.0794.

With RRIRKRPPRLPRPRPRPQEAPRP, the “shrunken log2 fold change” value was -0.000925.

Take RRIRYRPPRLPRPRPRPPTWPRP: the “shrunken log2 fold change” value is -0.0624.

For RRIRRRPPRLPRPRPRPFVHPRP, the “shrunken log2 fold change” value worked out at 0.0512.

Regarding RRIRCRPPRLPRPRPRPNDPPRP, the “shrunken log2 fold change” value is 0.0328.

Consider RRIRGRPPRLPRPRPRPIEPPRP, for which the “shrunken log2 fold change” value was 0.491.

Take RRIRKRPPRLPRPRPRPMDFPRP: the “shrunken log2 fold change” value was -0.0018.

RRIRFRPPRLPRPRPRPWTSPRP: the “shrunken log2 fold change” value was -0.0445.

On to RRIRNRPPRLPRPRPRPDHCPRP, for which the “shrunken log2 fold change” value worked out at 0.0463.

Take RRIRYRPPRLPRPRPRPAWWPRP: the “shrunken log2 fold change” value worked out at 0.365.

On to RRIRPRPPRLPRPRPRPRAAPRP, for which the “shrunken log2 fold change” value was determined as 0.611.

For RRIRFRPPRLPRPRPRPMARPRP, the “shrunken log2 fold change” value is -0.0235.

For RRIRDRPPRLPRPRPRPHGFPRP, the “shrunken log2 fold change” value was -0.00776.

For the sequence RRIRSRPPRLPRPRPRPDKRPRP, the “shrunken log2 fold change” value is -0.198.

For RRIRIRPPRLPRPRPRPLFMPRP, the “shrunken log2 fold change” value was -0.756.

On to RRIRPRPPRLPRPRPRPIKWPRP, for which the “shrunken log2 fold change” value is 0.0716.

For the sequence RRIRSRPPRLPRPRPRPATAPRP, the “shrunken log2 fold change” value was determined as 0.322.

As to RRIRPRPPRLPRPRPRPKESPRP, the “shrunken log2 fold change” value amounted to 0.13.

As to RRIRARPPRLPRPRPRPMWSPRP, the “shrunken log2 fold change” value is 0.0725.

In the case of RRIRKRPPRLPRPRPRPWKWPRP, the “shrunken log2 fold change” value is -0.0168.

For RRIRQRPPRLPRPRPRPKATPRP, the “shrunken log2 fold change” value came to 0.18.

On to RRIRPRPPRLPRPRPRPGTAPRP, for which the “shrunken log2 fold change” value was determined as 0.163.

For the sequence RRIRDRPPRLPRPRPRPFCKPRP, the “shrunken log2 fold change” value is -0.164.

Turning to RRIRKRPPRLPRPRPRPVRKPRP, the “shrunken log2 fold change” value was found to be 0.0395.

In the case of RRIRNRPPRLPRPRPRPIAMPRP, the “shrunken log2 fold change” value was -0.0835.

With RRIRIRPPRLPRPRPRPIDHPRP, the “shrunken log2 fold change” value was -0.0137.

Consider RRIRARPPRLPRPRPRPIQWPRP, for which the “shrunken log2 fold change” value worked out at 0.0649.

With RRIRFRPPRLPRPRPRPKLLPRP, the “shrunken log2 fold change” value was 0.0539.

Regarding RRIRTRPPRLPRPRPRPDFTPRP, the “shrunken log2 fold change” value is -0.0888.

In the case of RRIRRRPPRLPRPRPRPVTSPRP, the “shrunken log2 fold change” value worked out at 0.0312.

Turning to RRIRLRPPRLPRPRPRPWCCPRP, the “shrunken log2 fold change” value was -0.234.

Turning to RRIRTRPPRLPRPRPRPRNTPRP, the “shrunken log2 fold change” value is -0.209.

Turning to RRIRVRPPRLPRPRPRPPLDPRP, the “shrunken log2 fold change” value was found to be 0.433.

For RRIRWRPPRLPRPRPRPPQYPRP, the “shrunken log2 fold change” value came to 0.0672.

With RRIRGRPPRLPRPRPRPFIKPRP, the “shrunken log2 fold change” value is -0.484.

For the sequence RRIRRRPPRLPRPRPRPCNLPRP, the “shrunken log2 fold change” value is -0.0686.

Turning to RRIRFRPPRLPRPRPRPQINPRP, the “shrunken log2 fold change” value was -0.239.

As for RRIRERPPRLPRPRPRPHDRPRP, the “shrunken log2 fold change” value is -0.00992.

In the case of RRIRVRPPRLPRPRPRPKQSPRP, the “shrunken log2 fold change” value amounted to 0.0123.

For RRIRYRPPRLPRPRPRPSCCPRP, the “shrunken log2 fold change” value is -0.472.

In the case of RRIRRRPPRLPRPRPRPDFKPRP, the “shrunken log2 fold change” value came to 0.151.

In the case of RRIRYRPPRLPRPRPRPSPPPRP, the “shrunken log2 fold change” value was -0.469.

As for RRIRVRPPRLPRPRPRPQKYPRP, the “shrunken log2 fold change” value is -0.783.

Take RRIRQRPPRLPRPRPRPVHQPRP: the “shrunken log2 fold change” value is -0.104.

RRIRARPPRLPRPRPRPEGHPRP: the “shrunken log2 fold change” value is 0.223.

Consider RRIRKRPPRLPRPRPRPCFTPRP, for which the “shrunken log2 fold change” value came out at 0.135.

Regarding RRIRIRPPRLPRPRPRPHDHPRP, the “shrunken log2 fold change” value is -0.174.

For RRIRFRPPRLPRPRPRPALSPRP, the “shrunken log2 fold change” value was found to be 0.319.

RRIRWRPPRLPRPRPRPKCCPRP: the “shrunken log2 fold change” value came out at 0.0888.

Consider RRIRTRPPRLPRPRPRPYWLPRP, for which the “shrunken log2 fold change” value was -0.486.

For the sequence RRIRKRPPRLPRPRPRPEARPRP, the “shrunken log2 fold change” value worked out at 0.429.

As to RRIRFRPPRLPRPRPRPNTPPRP, the “shrunken log2 fold change” value is -0.263.

For the sequence RRIRERPPRLPRPRPRPTFNPRP, the “shrunken log2 fold change” value was -0.24.

Turning to RRIRGRPPRLPRPRPRPMSRPRP, the “shrunken log2 fold change” value came out at 0.00829.

Consider RRIRTRPPRLPRPRPRPPYTPRP, for which the “shrunken log2 fold change” value was -0.397.

For RRIRSRPPRLPRPRPRPERVPRP, the “shrunken log2 fold change” value stood at 0.21.

Take RRIRNRPPRLPRPRPRPQWDPRP: the “shrunken log2 fold change” value is -0.0901.

Take RRIRDRPPRLPRPRPRPSSRPRP: the “shrunken log2 fold change” value was -0.0968.

Turning to RRIRDRPPRLPRPRPRPNNPPRP, the “shrunken log2 fold change” value was -0.357.

In the case of RRIRGRPPRLPRPRPRPEYGPRP, the “shrunken log2 fold change” value was -0.0112.

For RRIRCRPPRLPRPRPRPHESPRP, the “shrunken log2 fold change” value is -0.123.

With RRIRWRPPRLPRPRPRPIRQPRP, the “shrunken log2 fold change” value is -0.0309.

Regarding RRIRIRPPRLPRPRPRPLAHPRP, the “shrunken log2 fold change” value was -0.379.

Regarding RRIRSRPPRLPRPRPRPPENPRP, the “shrunken log2 fold change” value was 0.679.

Turning to RRIRERPPRLPRPRPRPPNHPRP, the “shrunken log2 fold change” value is -0.288.

Take RRIRCRPPRLPRPRPRPLTHPRP: the “shrunken log2 fold change” value is -0.345.

RRIRIRPPRLPRPRPRPVYIPRP: the “shrunken log2 fold change” value is -0.154.

Take RRIRIRPPRLPRPRPRPTEPPRP: the “shrunken log2 fold change” value came to 0.0374.

RRIRGRPPRLPRPRPRPGSDPRP: the “shrunken log2 fold change” value was found to be 1.06.

For the sequence RRIRLRPPRLPRPRPRPMMMPRP, the “shrunken log2 fold change” value is -0.114.

For RRIRYRPPRLPRPRPRPHSNPRP, the “shrunken log2 fold change” value is -0.0748.

On to RRIRQRPPRLPRPRPRPNCHPRP, for which the “shrunken log2 fold change” value is -0.548.

On to RRIRYRPPRLPRPRPRPAEDPRP, for which the “shrunken log2 fold change” value is -0.176.

Take RRIRSRPPRLPRPRPRPQSTPRP: the “shrunken log2 fold change” value is -0.24.

Consider RRIRLRPPRLPRPRPRPNWAPRP, for which the “shrunken log2 fold change” value is -0.00149.

On to RRIRLRPPRLPRPRPRPWTEPRP, for which the “shrunken log2 fold change” value is -0.01.

Regarding RRIRVRPPRLPRPRPRPHWIPRP, the “shrunken log2 fold change” value was -0.512.

Consider RRIRIRPPRLPRPRPRPTKQPRP, for which the “shrunken log2 fold change” value was -0.242.

Consider RRIRHRPPRLPRPRPRPVANPRP, for which the “shrunken log2 fold change” value is -0.0206.

With RRIRMRPPRLPRPRPRPVIVPRP, the “shrunken log2 fold change” value was -0.313.

For the sequence RRIRWRPPRLPRPRPRPLAWPRP, the “shrunken log2 fold change” value turned out to be 0.474.

Consider RRIRVRPPRLPRPRPRPLGIPRP, for which the “shrunken log2 fold change” value is -0.105.

For RRIRPRPPRLPRPRPRPAMKPRP, the “shrunken log2 fold change” value is 0.162.

As for RRIRTRPPRLPRPRPRPEIMPRP, the “shrunken log2 fold change” value is -0.468.

As for RRIRHRPPRLPRPRPRPVIAPRP, the “shrunken log2 fold change” value is -0.134.

With RRIRRRPPRLPRPRPRPLRDPRP, the “shrunken log2 fold change” value worked out at 1.05.

Turning to RRIRERPPRLPRPRPRPVFGPRP, the “shrunken log2 fold change” value was -0.0574.

With RRIRPRPPRLPRPRPRPDDPPRP, the “shrunken log2 fold change” value is -0.0693.

Consider RRIRVRPPRLPRPRPRPWRGPRP, for which the “shrunken log2 fold change” value came out at 0.378.

Take RRIRCRPPRLPRPRPRPENWPRP: the “shrunken log2 fold change” value stood at 0.145.

Turning to RRIRFRPPRLPRPRPRPLLGPRP, the “shrunken log2 fold change” value is 0.123.

For the sequence RRIRLRPPRLPRPRPRPCKKPRP, the “shrunken log2 fold change” value is -0.149.

Turning to RRIRMRPPRLPRPRPRPRHAPRP, the “shrunken log2 fold change” value worked out at 0.698.

For the sequence RRIRKRPPRLPRPRPRPIILPRP, the “shrunken log2 fold change” value was -0.11.

In the case of RRIRMRPPRLPRPRPRPNVYPRP, the “shrunken log2 fold change” value is -0.368.

With RRIRYRPPRLPRPRPRPNQTPRP, the “shrunken log2 fold change” value was -0.0672.

Regarding RRIRYRPPRLPRPRPRPTREPRP, the “shrunken log2 fold change” value is -0.145.

As to RRIRRRPPRLPRPRPRPRMWPRP, the “shrunken log2 fold change” value was found to be 0.431.

For the sequence RRIRQRPPRLPRPRPRPISTPRP, the “shrunken log2 fold change” value is -0.503.

As to RRIRQRPPRLPRPRPRPNHKPRP, the “shrunken log2 fold change” value was -0.493.

Turning to RRIRKRPPRLPRPRPRPWGMPRP, the “shrunken log2 fold change” value worked out at 0.142.

RRIRRRPPRLPRPRPRPPHHPRP: the “shrunken log2 fold change” value was found to be 1.09.

For RRIRLRPPRLPRPRPRPPFFPRP, the “shrunken log2 fold change” value is 0.14.
